In paper PMC3107245:

Experiments:
Assay in all cases: co-IP; 293T cells co-transfected with 1 µg Vpu-cmyc variant and 2 µg HA-tetherin; lysis in 50 mM Tris-HCl pH 7.4, 150 mM NaCl, 1% Triton X-100, 1% CHAPS; IP with anti-myc antibody and protein G agarose at 4°C; blot with anti-HA; tetherin quantified by densitometry, normalized by tubulin, Vpu WT = 100%
[1] = target: Vpu TM CΔ2I (HIV-1 NL4-3)
[2] = target: Vpu TM NΔ2I (HIV-1 NL4-3)
[3] = target: Vpu TM M3IT (HIV-1 NL4-3)
[4] = target: Vpu TM M3IV (HIV-1 NL4-3)

Chain of HA-tetherin (Q10589 1-161): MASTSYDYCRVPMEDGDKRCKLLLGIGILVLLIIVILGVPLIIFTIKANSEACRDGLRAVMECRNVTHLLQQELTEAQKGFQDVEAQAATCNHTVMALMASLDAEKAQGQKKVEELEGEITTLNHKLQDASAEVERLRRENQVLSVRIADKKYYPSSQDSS

HA-tetherin (from UniProt Q10589 1-161) (natural protein)
percent of tetherin bound relative to Vpu WT (100%) [1]: 25%
percent of tetherin bound relative to Vpu WT (100%) [2]: 50%
percent of tetherin bound relative to Vpu WT (100%) [3]: 10%
percent of tetherin bound relative to Vpu WT (100%) [4]: > 80%
